The target of one data set is NKp65 (Homo sapiens) (UniProt D3W0D1). Conditions: cited from earlier work.
The target in data set [1] is extended Clr-b, C-terminally extended version terminating at Ser207, His-tagged (mouse) (UniProt Q91V08). In words: AUC; sedimentation velocity, 120 μM each of extended Clr-b and NKR-P1B constructs, alone and in combination; 10 mM Tris-HCl pH 8.0, 0.15 M NaCl, 20 °C.
Data set [2] deals with Clr-b residues 74-194, E. coli expressed and refolded (mouse) (UniProt Q91V08). The data set can be described thus: AUC; sedimentation velocity, Clr-b alone at higher concentrations (25–200 μM); 10 mM Tris-HCl pH 8.0, 0.15 M NaCl, 20 °C; monomer to dimer.
Data set [3] shares this target. The data set can be described thus: crystal structure; Clr-b and NKR-P1B^B6 mixed 1:1, 5 mg/ml; 21% PEG 3350, 0.1 M Bis/Tris pH 5.9, 5% glycerol, 0.2 M ammonium sulfate, 20 °C; 2.9 Å.
Data set [4] has as its target T1, NKR-P1B (B6 allele) C-type lectin-like domain with C-terminal BirA tag and His tag, biotinylated monomer (mouse, UniProt Q99JB4 89-215, biotin on the BirA tag).
T1 chain: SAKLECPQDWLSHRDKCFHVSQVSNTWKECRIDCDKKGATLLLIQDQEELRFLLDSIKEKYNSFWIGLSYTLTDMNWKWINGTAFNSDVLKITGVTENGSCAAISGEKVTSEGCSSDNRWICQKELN
In words: SPR.

Data set [5] deals with the molecule itself. The data set can be described thus: crystal structure; Clr-b and NKR-P1B^B6 mixed 1:1, 5 mg/ml; 21% PEG 3350, 0.1 M Bis/Tris pH 5.9, 5% glycerol, 0.2 M ammonium sulfate, 20 °C; 2.9 Å.

extended Clr-b, C-terminally extended version terminating at Ser207, His-tagged (mouse), sequence (Q91V08 74-207): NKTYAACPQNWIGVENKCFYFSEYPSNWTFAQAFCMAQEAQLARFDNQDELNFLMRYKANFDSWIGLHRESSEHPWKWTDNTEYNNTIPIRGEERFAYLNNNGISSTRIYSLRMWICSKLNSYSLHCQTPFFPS
NKp65 (Homo sapiens), sequence (D3W0D1 whole entry): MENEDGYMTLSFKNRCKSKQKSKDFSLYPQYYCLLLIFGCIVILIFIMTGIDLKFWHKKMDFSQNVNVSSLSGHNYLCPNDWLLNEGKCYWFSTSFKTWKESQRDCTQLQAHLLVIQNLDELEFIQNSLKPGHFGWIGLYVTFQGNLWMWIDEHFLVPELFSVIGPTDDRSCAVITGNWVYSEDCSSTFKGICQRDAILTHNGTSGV

The Kd is the constant that tells how readily two partners part at equilibrium. With KACL (from UniProt Q6UVW9), the equilibrium dissociation constant (Kd) in the data set with NKp65 (Homo sapiens) is 0.0007 µM.

In the case of “extended NKR-P1B (B6 allele) containing the membrane proximal stalk, starting from Gln72, His-tagged (from UniProt Q99JB4 72-223) (domain or fragment)”, in data set [1], the fraction of total in the species of the complex is 6% and the stoichiometry N (NKR-P1B per Clr-b chain) was determined as 0.5.

As a reminder, the stoichiometry N is a count of units in the complex or per binding partner. With “Clr-b residues 74-194, E. coli expressed and refolded (from UniProt Q91V08 74-194) (domain or fragment)”, the stoichiometry N in data set [2] and in data set [3] was 2 in each case.

B1: m12, mouse cytomegalovirus-encoded decoy ligand (ligand)
chain: TNVLAAPKNTSCVKKFTVSERRPPPEPGKCMSLLGSTLVNKQAANKQVDKPVTILKIFRCPVEEYLCMNATWSGRLFVRTQDNREIIFGNISFTSTDSSPTTLTGISTLKPWPLSSDLWIHSGTGDIYMFSNASFSDPKCYITLCVLRKNAHIPVQRANFAFGVTDENLVTPTSTRTVDN
Take B1: in data set [4], the Kd worked out at 21.6 µM.

B2: NKR-P1B (B6 allele) C-type lectin-like domain, His-tagged (domain or fragment, mouse)
chain: SAKLECPQDWLSHRDKCFHVSQVSNTWKECRIDCDKKGATLLLIQDQEELRFLLDSIKEKYNSFWIGLSYTLTDMNWKWINGTAFNSDVLKITGVTENGSCAAISGEKVTSEGCSSDNRWICQKELN
modifications: N-acetylglucosamine on Asn169 (seen in the structure)
notes: NKR-P1B, B6 (C57BL/6) allele of Klrb1b, mouse, C-type lectin-like domain; Construct for structural and AUC experiments; also called ectodomain of NKR-P1B^B6
As to B2, the stoichiometry N (NKR-P1B per Clr-b chain) in data set [3] came to 0.5. Further, the “stoichiometry N” value in data set [5] was 2.
